In patent publication US20050019345A1 (published 2005):

Key:
[1] = molecular target: BSA (bovine) (UniProt P02769); experiment: enzyme-linked binding assay (ELISA format), non-conjugated HRPO on immobilized BSA
[2] = molecular target: T1, human collagen type I (human, UniProt P02452 162-1218; P08123 80-1119, limits assumed); experiment: enzyme-linked binding assay (ELISA format), non-conjugated HRPO on immobilized matrix protein
T1 construct: Bought (Gibco BRL), immobilized on plates; also called type I collagen; collagen type 1
Method: (§1) After purification and labeling, it was subjected to an enzyme-linked binding assay with the Immobilized human matrix proteins, collagen type 1, fibronectin and laminin.
(§2) Peroxidase-labeled Cpa-maltose binding protein fusion and recombinant purified maltose-binding protein (for control of specific binding of the bacteria) were added to the wells for 2 h at room temperature. Non-conjugated peroxidase at a 1:300 dilution in PBS-T was used as a negative control. […] All assays were repeated on at least three independent occasions.

[3] = molecular target: human laminin (human); experiment: as above
Method: as §1, §2

[4] = molecular target: T2, human fibronectin (human, UniProt P02751 32-2477, limits assumed); experiment: as above
T2 construct: Bought, immobilized on plates
T2 sequence (P02751 32-2477 limits assumed): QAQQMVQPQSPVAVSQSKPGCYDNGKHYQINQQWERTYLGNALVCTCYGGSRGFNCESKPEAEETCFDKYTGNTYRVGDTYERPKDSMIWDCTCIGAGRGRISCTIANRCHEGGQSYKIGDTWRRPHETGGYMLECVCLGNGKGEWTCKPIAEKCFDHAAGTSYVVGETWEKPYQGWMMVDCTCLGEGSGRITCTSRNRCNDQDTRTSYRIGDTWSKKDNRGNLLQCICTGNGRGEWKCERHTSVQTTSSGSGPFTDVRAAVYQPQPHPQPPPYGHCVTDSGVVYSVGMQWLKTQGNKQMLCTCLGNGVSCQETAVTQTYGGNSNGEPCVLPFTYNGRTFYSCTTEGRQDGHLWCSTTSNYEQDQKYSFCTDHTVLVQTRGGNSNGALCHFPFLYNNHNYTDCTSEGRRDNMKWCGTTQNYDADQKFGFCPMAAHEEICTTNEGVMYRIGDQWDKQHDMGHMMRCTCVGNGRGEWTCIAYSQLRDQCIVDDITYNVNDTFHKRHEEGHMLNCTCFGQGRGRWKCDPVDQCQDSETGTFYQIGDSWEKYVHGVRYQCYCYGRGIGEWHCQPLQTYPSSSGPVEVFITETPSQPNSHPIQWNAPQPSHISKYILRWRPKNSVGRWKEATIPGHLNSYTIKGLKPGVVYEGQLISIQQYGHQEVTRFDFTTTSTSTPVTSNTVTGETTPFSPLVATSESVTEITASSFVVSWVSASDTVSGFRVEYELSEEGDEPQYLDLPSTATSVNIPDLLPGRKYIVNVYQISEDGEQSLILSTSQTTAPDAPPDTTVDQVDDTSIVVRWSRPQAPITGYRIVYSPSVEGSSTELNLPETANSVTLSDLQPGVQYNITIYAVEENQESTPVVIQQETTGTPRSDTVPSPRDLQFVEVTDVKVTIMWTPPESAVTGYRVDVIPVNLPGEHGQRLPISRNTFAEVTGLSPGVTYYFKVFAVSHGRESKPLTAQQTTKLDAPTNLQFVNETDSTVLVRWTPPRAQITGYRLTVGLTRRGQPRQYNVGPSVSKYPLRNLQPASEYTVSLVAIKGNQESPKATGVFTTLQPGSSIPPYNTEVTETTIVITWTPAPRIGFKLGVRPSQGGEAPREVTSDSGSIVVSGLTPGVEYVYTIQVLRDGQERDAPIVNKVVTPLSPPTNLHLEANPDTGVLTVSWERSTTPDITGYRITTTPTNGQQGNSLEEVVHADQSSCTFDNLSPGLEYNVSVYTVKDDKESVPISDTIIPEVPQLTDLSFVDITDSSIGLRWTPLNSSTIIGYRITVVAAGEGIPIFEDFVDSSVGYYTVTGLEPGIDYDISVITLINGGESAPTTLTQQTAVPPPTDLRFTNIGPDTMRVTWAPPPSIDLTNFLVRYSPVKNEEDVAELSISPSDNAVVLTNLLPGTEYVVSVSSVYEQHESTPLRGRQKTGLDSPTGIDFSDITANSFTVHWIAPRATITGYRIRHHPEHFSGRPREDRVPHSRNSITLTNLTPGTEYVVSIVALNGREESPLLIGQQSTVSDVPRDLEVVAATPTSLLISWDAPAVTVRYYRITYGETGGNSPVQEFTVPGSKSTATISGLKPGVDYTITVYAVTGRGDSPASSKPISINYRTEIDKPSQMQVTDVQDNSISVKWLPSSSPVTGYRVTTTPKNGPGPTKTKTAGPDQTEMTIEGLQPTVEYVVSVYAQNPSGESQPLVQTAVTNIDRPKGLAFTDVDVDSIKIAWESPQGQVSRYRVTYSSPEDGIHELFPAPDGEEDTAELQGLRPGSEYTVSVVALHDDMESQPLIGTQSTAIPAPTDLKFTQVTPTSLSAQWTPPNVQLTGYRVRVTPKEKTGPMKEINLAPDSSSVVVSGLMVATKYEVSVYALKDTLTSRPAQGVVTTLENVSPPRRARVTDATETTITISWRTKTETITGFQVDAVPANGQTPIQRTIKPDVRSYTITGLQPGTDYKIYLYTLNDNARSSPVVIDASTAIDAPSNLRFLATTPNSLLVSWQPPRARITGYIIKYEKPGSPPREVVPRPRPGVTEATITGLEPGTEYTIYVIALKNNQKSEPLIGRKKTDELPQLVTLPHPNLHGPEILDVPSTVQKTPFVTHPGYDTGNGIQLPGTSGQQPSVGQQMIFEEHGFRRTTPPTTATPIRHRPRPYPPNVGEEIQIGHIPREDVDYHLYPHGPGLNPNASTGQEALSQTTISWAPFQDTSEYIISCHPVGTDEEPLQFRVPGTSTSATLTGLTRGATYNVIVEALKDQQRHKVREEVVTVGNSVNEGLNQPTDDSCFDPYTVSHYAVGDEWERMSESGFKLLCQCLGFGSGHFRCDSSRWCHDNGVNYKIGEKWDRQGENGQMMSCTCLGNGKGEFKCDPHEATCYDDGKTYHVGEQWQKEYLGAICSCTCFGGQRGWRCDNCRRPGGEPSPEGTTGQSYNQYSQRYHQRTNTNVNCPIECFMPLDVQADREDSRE
Method: as §1, §2

Chain of BSA (bovine) (P02769 25-607 limits assumed): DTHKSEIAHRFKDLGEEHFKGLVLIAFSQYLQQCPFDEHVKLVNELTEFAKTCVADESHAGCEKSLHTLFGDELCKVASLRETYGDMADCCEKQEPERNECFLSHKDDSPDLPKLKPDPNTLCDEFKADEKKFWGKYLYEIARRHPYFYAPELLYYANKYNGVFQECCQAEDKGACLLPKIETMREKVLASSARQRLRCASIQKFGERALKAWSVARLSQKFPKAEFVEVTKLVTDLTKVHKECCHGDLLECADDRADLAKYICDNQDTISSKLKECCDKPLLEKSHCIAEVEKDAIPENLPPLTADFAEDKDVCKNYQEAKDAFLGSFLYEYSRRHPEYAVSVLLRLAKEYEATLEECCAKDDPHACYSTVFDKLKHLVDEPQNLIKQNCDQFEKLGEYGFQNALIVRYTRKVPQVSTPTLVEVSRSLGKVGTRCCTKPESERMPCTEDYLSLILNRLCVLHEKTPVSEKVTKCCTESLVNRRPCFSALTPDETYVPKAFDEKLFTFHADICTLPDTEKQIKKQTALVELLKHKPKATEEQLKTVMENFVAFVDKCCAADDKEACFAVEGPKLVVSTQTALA
T1 sequence (P02452 162-1218 limits assumed, chain 1 of 2): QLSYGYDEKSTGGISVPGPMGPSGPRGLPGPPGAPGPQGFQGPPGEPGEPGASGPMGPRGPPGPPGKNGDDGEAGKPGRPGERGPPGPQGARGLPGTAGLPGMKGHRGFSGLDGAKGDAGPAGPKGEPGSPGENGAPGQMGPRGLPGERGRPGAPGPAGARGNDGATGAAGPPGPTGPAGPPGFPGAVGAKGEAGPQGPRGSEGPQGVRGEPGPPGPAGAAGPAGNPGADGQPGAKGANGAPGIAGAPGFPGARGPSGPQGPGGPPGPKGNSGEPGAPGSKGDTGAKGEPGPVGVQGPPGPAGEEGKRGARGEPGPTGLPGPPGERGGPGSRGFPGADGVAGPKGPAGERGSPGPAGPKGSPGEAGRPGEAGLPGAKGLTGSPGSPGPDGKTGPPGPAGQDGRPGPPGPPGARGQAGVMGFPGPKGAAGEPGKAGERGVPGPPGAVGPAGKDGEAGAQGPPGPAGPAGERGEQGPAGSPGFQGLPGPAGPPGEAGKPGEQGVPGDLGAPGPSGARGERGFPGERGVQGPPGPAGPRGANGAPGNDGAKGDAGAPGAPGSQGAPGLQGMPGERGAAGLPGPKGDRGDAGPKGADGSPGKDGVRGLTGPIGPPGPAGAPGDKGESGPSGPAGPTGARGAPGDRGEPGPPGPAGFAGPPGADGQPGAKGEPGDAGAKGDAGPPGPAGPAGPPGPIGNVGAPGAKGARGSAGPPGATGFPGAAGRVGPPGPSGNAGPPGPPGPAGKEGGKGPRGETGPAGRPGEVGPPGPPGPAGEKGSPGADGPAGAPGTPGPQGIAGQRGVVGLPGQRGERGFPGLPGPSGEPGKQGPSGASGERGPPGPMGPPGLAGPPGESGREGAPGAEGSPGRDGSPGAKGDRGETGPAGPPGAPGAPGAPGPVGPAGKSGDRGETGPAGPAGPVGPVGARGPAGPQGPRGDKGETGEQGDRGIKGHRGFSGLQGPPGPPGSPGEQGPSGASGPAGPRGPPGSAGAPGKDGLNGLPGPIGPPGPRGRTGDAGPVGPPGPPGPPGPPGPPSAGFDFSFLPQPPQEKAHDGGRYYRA
T1 sequence (P08123 80-1119 limits assumed, chain 2 of 2): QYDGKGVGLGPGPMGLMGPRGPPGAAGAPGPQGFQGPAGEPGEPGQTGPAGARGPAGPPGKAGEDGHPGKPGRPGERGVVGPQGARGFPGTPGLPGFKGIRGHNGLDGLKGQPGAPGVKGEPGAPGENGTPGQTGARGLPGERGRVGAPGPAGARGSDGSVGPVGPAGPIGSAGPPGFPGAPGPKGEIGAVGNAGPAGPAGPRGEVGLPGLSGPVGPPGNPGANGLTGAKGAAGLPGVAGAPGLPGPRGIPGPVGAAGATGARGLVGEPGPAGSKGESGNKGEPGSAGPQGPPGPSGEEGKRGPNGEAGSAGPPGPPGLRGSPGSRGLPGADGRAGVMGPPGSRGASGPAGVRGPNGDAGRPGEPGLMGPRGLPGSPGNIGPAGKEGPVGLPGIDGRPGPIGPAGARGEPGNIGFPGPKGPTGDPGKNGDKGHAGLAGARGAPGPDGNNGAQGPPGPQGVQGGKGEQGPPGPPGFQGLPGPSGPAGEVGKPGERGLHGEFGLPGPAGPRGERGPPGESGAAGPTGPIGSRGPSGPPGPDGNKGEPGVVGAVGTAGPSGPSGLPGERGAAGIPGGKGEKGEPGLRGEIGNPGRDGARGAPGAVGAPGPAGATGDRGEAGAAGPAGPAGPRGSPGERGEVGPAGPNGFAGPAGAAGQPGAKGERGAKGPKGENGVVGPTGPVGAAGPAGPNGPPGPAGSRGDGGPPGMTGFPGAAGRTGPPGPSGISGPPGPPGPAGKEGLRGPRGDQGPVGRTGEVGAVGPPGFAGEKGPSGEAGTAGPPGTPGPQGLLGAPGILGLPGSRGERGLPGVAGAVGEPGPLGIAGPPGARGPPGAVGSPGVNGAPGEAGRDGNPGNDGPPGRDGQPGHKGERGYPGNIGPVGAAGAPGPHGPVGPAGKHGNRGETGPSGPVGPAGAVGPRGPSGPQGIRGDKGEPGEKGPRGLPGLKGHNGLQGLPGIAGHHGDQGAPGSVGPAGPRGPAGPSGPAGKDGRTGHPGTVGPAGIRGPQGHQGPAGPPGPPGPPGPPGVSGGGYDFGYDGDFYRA

B1: non-conjugated horseradish peroxidase (enzyme, UniProt P00433 31-338, looked up)
chain: QLTPTFYDNSCPNVSNIVRDTIVNELRSDPRIAASILRLHFHDCFVNGCDASILLDNTTSFRTEKDAFGNANSARGFPVIDRMKAAVESACPRTVSCADLLTIAAQQSVTLAGGPSWRVPLGRRDSLQAFLDLANANLPAPFFTLPQLKDSFRNVGLNRSSDLVALSGGHTFGKNQCRFIMDRLYNFSNTGLPDPTLNTTYLQTLRGLCPLNGNLSALVDFDLRTPTIFDNKYYVNLEEQKGLIQSDQELFSSPNATDTIPLVRSFANSTQTFFNAFVEAMDRMGNITPLTGTQGQIRLNCRVVNSNS
notes: Negative control; also called HRPO; HRPO (negative control)
Work on B1 yielded an OD492 [1] of 0.028 OD492, an OD492 [2] of 0.049 OD492 and an OD492 [3] of 0.038 OD492. It also gave an OD492 [4] of 0.038 OD492.
